These results are taken from publication PMC11261467.

Assay in all cases: SPR
Test [1] deals with plasma-derived C3b (unfractionated) (human) (UniProt P01024).
Test [2] addresses plasma-derived C4b (unfractionated) (human) (UniProt P0C0L4).
Test [3] has as its target His-tagged CSL040/LHR-ABC (human) (UniProt P17927).

On to “LHR-B (soluble human CR1 truncation), untagged (from UniProt P17927 490-939) (domain or fragment)”, for which the results for the equilibrium dissociation constant (Kd) in test [1] and in test [2] were 337 nM and 1910 nM, respectively.
As for “plasma-derived C3b (unfractionated) (from UniProt P01024 749-1663; P01024 749-1663) (ligand)”, in test [3], the Kd was 134 nM.
“LHR-A (soluble human CR1 truncation), untagged (from UniProt P17927 42-489) (domain or fragment)”: in test [2], the equilibrium dissociation constant (Kd) was 1230 nM.
“LHR-AB (soluble human CR1 truncation), untagged (from UniProt P17927 42-939) (domain or fragment)”: the Kd in test [1] turned out to be 305 nM; in test [2], 530 nM.
For the substance “LHR-AA (soluble human CR1 variant with two tandem LHR-A domains), untagged (from UniProt P17927 42-489; P17927 42-489)”, the Kd in test [2] worked out at 1540 nM.
In test [3], “plasma-derived C3b dimer (purified by size-exclusion chromatography) (from UniProt P01024 749-1663; P01024 749-1663) (complex)” showed a Kd of 3.8 nM.
In the case of “LHR-BC (soluble human CR1 truncation), untagged (from UniProt P17927 490-1392) (domain or fragment)”, the equilibrium dissociation constant (Kd) in test [1] was found to be 78.2 nM; in test [2], 581 nM.
